Test results published in patent publication US7183387 (Genentech, dated 2007).

T1: human FcγRIIA-R131 α subunit extracellular domain-6His-GST fusion (human, UniProt P12318 34-217)
T1 construct: also called FcγRIIA-Arg131; not shown: glutathione S-transferase (GST)
T1 sequence: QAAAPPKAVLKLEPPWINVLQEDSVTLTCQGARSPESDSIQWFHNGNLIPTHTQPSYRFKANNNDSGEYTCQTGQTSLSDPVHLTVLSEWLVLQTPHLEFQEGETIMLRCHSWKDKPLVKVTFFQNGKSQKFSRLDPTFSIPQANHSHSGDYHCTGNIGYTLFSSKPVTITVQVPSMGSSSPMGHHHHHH

T2: human FcγRIIB α subunit extracellular domain-6His-GST fusion (human, UniProt P31994 43-217)
T2 construct: not shown: glutathione S-transferase (GST)
T2 sequence: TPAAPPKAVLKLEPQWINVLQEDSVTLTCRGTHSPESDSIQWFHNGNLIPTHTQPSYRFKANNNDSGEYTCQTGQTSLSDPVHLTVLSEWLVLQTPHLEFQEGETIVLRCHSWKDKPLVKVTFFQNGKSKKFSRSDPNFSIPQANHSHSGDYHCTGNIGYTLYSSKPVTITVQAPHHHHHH


How the values were obtained:
Experiment in all cases: ELISA, IgG:IgE hexamers on receptor-GST
[1] = target: T1, human FcγRIIA-R131 α subunit …
[2] = target: T3, human FcγRIIIA-F158 α subunit extracellular domain-6His-GST fusion (human, UniProt P08637 17-208)
T3 construct: also called FcγRIIIA-Phe158; not shown: glutathione S-transferase (GST)

[3] = target: T2, human FcγRIIB α subunit extracellular …

T3 sequence (P08637 other isoform, or with tags, fused parts or gaps, form in doubt): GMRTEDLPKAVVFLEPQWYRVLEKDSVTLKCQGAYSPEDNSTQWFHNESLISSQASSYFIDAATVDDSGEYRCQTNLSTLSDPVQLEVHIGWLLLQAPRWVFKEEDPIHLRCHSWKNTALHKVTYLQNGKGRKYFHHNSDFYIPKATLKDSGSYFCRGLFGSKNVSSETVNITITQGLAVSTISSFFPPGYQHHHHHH

Row | Binder | ratio to native IgG1 [1] | ratio to native IgG1 [2] | ratio to native IgG1 [3]
1 | E27 IgG1 variant N276(289)Q (antibody, also called IG2 233) heavy: not shown light: DIQLTQSPSSLSASVGDRVTITCRASKPVDGEGDSYLNWYQQKPGKAPKLLIYAASYLESGVPSRFSGSGSGTDFTLTISSLQPEDFATYYCQQSHEDPYTFGQGTKVEIKRTVAAPSVFIFPPSDEQLKSGTASVVCLLNNFYPREAKVQWKVDNALQSGNSQESVTEQDSKDSTYSLSSTLTLSKADYEKHKVYACEVTHQGLSSPVTKSFNRGEC | 1.09 | 0.91 | 0.79
2 | E27 IgG1 variant N286(303)D (antibody, also called IG2 238) heavy: not shown light: DIQLTQSPSSLSASVGDRVTITCRASKPVDGEGDSYLNWYQQKPGKAPKLLIYAASYLESGVPSRFSGSGSGTDFTLTISSLQPEDFATYYCQQSHEDPYTFGQGTKVEIKRTVAAPSVFIFPPSDEQLKSGTASVVCLLNNFYPREAKVQWKVDNALQSGNSQESVTEQDSKDSTYSLSSTLTLSKADYEKHKVYACEVTHQGLSSPVTKSFNRGEC | 1.41 | 0.98 | 1.23
3 | E27 IgG1 variant N286(303)Q (antibody, also called IG2 23) heavy: not shown light: DIQLTQSPSSLSASVGDRVTITCRASKPVDGEGDSYLNWYQQKPGKAPKLLIYAASYLESGVPSRFSGSGSGTDFTLTISSLQPEDFATYYCQQSHEDPYTFGQGTKVEIKRTVAAPSVFIFPPSDEQLKSGTASVVCLLNNFYPREAKVQWKVDNALQSGNSQESVTEQDSKDSTYSLSSTLTLSKADYEKHKVYACEVTHQGLSSPVTKSFNRGEC | 1.52 | 0.96 | 1.13
4 | E27 IgG1 variant N286(303)S (antibody, also called IG2 237) heavy: not shown light: DIQLTQSPSSLSASVGDRVTITCRASKPVDGEGDSYLNWYQQKPGKAPKLLIYAASYLESGVPSRFSGSGSGTDFTLTISSLQPEDFATYYCQQSHEDPYTFGQGTKVEIKRTVAAPSVFIFPPSDEQLKSGTASVVCLLNNFYPREAKVQWKVDNALQSGNSQESVTEQDSKDSTYSLSSTLTLSKADYEKHKVYACEVTHQGLSSPVTKSFNRGEC | 1.72 | 1.32 | 1.38
5 | E27 IgG1 variant P331(350)E (antibody, also called IG2 200) heavy: not shown light: DIQLTQSPSSLSASVGDRVTITCRASKPVDGEGDSYLNWYQQKPGKAPKLLIYAASYLESGVPSRFSGSGSGTDFTLTISSLQPEDFATYYCQQSHEDPYTFGQGTKVEIKRTVAAPSVFIFPPSDEQLKSGTASVVCLLNNFYPREAKVQWKVDNALQSGNSQESVTEQDSKDSTYSLSSTLTLSKADYEKHKVYACEVTHQGLSSPVTKSFNRGEC | 1.06 | 0.42 | 0.91
6 | E27 IgG1 variant P331(350)K (antibody) heavy: not shown light: DIQLTQSPSSLSASVGDRVTITCRASKPVDGEGDSYLNWYQQKPGKAPKLLIYAASYLESGVPSRFSGSGSGTDFTLTISSLQPEDFATYYCQQSHEDPYTFGQGTKVEIKRTVAAPSVFIFPPSDEQLKSGTASVVCLLNNFYPREAKVQWKVDNALQSGNSQESVTEQDSKDSTYSLSSTLTLSKADYEKHKVYACEVTHQGLSSPVTKSFNRGEC | 0.94 | 0.33 | 0.71
7 | E27 IgG1 variant P331(350)N (antibody, also called IG2 199) heavy: not shown light: DIQLTQSPSSLSASVGDRVTITCRASKPVDGEGDSYLNWYQQKPGKAPKLLIYAASYLESGVPSRFSGSGSGTDFTLTISSLQPEDFATYYCQQSHEDPYTFGQGTKVEIKRTVAAPSVFIFPPSDEQLKSGTASVVCLLNNFYPREAKVQWKVDNALQSGNSQESVTEQDSKDSTYSLSSTLTLSKADYEKHKVYACEVTHQGLSSPVTKSFNRGEC | 0.86 | 0.23 | 0.65
8 | E27 IgG1 variant P331(350)S (antibody, also called IG2 198) heavy: not shown light: DIQLTQSPSSLSASVGDRVTITCRASKPVDGEGDSYLNWYQQKPGKAPKLLIYAASYLESGVPSRFSGSGSGTDFTLTISSLQPEDFATYYCQQSHEDPYTFGQGTKVEIKRTVAAPSVFIFPPSDEQLKSGTASVVCLLNNFYPREAKVQWKVDNALQSGNSQESVTEQDSKDSTYSLSSTLTLSKADYEKHKVYACEVTHQGLSSPVTKSFNRGEC | 0.91 | 0.58 | 0.78
9 | E27 IgG1 variant R292(309)H (antibody, also called IG2 81) heavy: not shown light: DIQLTQSPSSLSASVGDRVTITCRASKPVDGEGDSYLNWYQQKPGKAPKLLIYAASYLESGVPSRFSGSGSGTDFTLTISSLQPEDFATYYCQQSHEDPYTFGQGTKVEIKRTVAAPSVFIFPPSDEQLKSGTASVVCLLNNFYPREAKVQWKVDNALQSGNSQESVTEQDSKDSTYSLSSTLTLSKADYEKHKVYACEVTHQGLSSPVTKSFNRGEC | 0.21 | 0.92 | 0.12
10 | E27 IgG1 variant R292(309)K (antibody, also called IG2 80) heavy: not shown light: DIQLTQSPSSLSASVGDRVTITCRASKPVDGEGDSYLNWYQQKPGKAPKLLIYAASYLESGVPSRFSGSGSGTDFTLTISSLQPEDFATYYCQQSHEDPYTFGQGTKVEIKRTVAAPSVFIFPPSDEQLKSGTASVVCLLNNFYPREAKVQWKVDNALQSGNSQESVTEQDSKDSTYSLSSTLTLSKADYEKHKVYACEVTHQGLSSPVTKSFNRGEC | 0.71 | 1.15 | 0.75
11 | E27 IgG1 variant R292(309)N (antibody, also called IG2 83) heavy: not shown light: DIQLTQSPSSLSASVGDRVTITCRASKPVDGEGDSYLNWYQQKPGKAPKLLIYAASYLESGVPSRFSGSGSGTDFTLTISSLQPEDFATYYCQQSHEDPYTFGQGTKVEIKRTVAAPSVFIFPPSDEQLKSGTASVVCLLNNFYPREAKVQWKVDNALQSGNSQESVTEQDSKDSTYSLSSTLTLSKADYEKHKVYACEVTHQGLSSPVTKSFNRGEC | 0.54 | 0.88 | 0.29
12 | E27 IgG1 variant R292(309)Q (antibody, also called IG2 82) heavy: not shown light: DIQLTQSPSSLSASVGDRVTITCRASKPVDGEGDSYLNWYQQKPGKAPKLLIYAASYLESGVPSRFSGSGSGTDFTLTISSLQPEDFATYYCQQSHEDPYTFGQGTKVEIKRTVAAPSVFIFPPSDEQLKSGTASVVCLLNNFYPREAKVQWKVDNALQSGNSQESVTEQDSKDSTYSLSSTLTLSKADYEKHKVYACEVTHQGLSSPVTKSFNRGEC | 0.47 | 0.45 | 0.25
13 | E27 IgG1 variant R301(320)M (antibody) heavy: not shown light: DIQLTQSPSSLSASVGDRVTITCRASKPVDGEGDSYLNWYQQKPGKAPKLLIYAASYLESGVPSRFSGSGSGTDFTLTISSLQPEDFATYYCQQSHEDPYTFGQGTKVEIKRTVAAPSVFIFPPSDEQLKSGTASVVCLLNNFYPREAKVQWKVDNALQSGNSQESVTEQDSKDSTYSLSSTLTLSKADYEKHKVYACEVTHQGLSSPVTKSFNRGEC | 1.29 | 0.48 | 1.56
14 | E27 IgG1 variant S298(317)G (antibody, also called IG2 70) heavy: not shown light: DIQLTQSPSSLSASVGDRVTITCRASKPVDGEGDSYLNWYQQKPGKAPKLLIYAASYLESGVPSRFSGSGSGTDFTLTISSLQPEDFATYYCQQSHEDPYTFGQGTKVEIKRTVAAPSVFIFPPSDEQLKSGTASVVCLLNNFYPREAKVQWKVDNALQSGNSQESVTEQDSKDSTYSLSSTLTLSKADYEKHKVYACEVTHQGLSSPVTKSFNRGEC | 0.87 | 0.46 | 0.63
